Measurements reported in patent US20120149645A1, “COMPOSITIONS AND MODULATION OF MYOCYTE ENHANCER FACTOR 2 (MEF2)” (EMORY UNIVERSITY, priority 2010, published 2012).

Legend:
[1] = system: SN4741 cells; assay: Mitochondrial functional assays (ATP, H2O2, membrane potential); type: cell-based, mouse; conditions: over-expression in SN4741 cells
Source text: (§1) (A) Requirement of mitochondrial MEF2D for complex I activity. […] Control indicates the control vector group. (B) Over-expression of ND6 rescued complex I activity reduced by Mt2Ddn. Control indicates the control vector group. (C) Measurement of various complex activities. […] Control indicates the control vector group. (D) Effects of over-expression of Mt2D or Mt2Ddn on mitochondrial function. Mt2Ddn reduced cellular ATP level and elevated H2O2 production in SN4741 cells (n=4; *p<0.05; **P<0.01). Control indicates the control vector group.
(§2) Mitochondrial complex I activity was evaluated initially by blue native-polyacrylamide gel electrophoresis (BN-PAGE) and in-gel activity staining. This assay measures total complex I activity. Rotenone sensitive complex I activity and activities of other mitochondrial complexes were further measured by methods described by Antoni et al., J Biol Chem, 1998, 273:14210-14217. Briefly, parallel assays were performed to measure complex I activity at 340 nm using 2,3-dimethoxy-5-methyl-6-n-decyl-1,4-benzoquinone (DB) (50 μM) as acceptor and NADH (0.8 mM) as donor, in 50 mM Tris (pH 8.0) buffer supplemented with 5 mg/ml BSA either without or with the addition of 4 μM rotenone, which gave total and rotenone insensitive complex I activities, respectively. The difference in value between the two provided a quantified measure of the rotenone-sensitive activity. Mitochondrial membrane potential was detected using a kit (cat. no. 280002) from Stratagene following the procedures provided by the manufacturer. The fluorescent dye JC-1 (5,5′,6,6′-tetrachloro-1,1′,3,3′-tetraethylbenzimidazolyl carbocyanine iodide) stains mitochondria red in a membrane potential dependent manner. Briefly, cells were seeded in 96-well plates at 4×10^4 cells/well with 100 μl culture medium and incubated at 33° C. with 5% CO2. After treatment, 10 μl/well of premixed JC-1 staining solution was added, and the cells were incubated for an additional 30 min under the same conditions. After thorough washes, 100 μl assay buffer was added to each well. Fluorescence signal was detected with excitation and emission at 520 nm and 590 nm, respectively, on a multi-well plate reader (Bio-Tek). Cellular ATP and H202 were measured by Bioluminescent Somatic Cell ATP Assay Kit (Sigma) and Hydrogen Peroxide Assay Kit (Cayman), respectively.

[2] = system: TH+ neurons in SNpc; assay: MPTP mouse model of PD, TH immunohistochemistry in SNpc; conditions: lentivirus injected into SNpc of mouse brain, then MPTP
Protocol: (B) Role of mitochondrial MEF2D-ND6 pathway in maintaining TH+ neurons in SNpc in a MPTP mouse model of PD. For each group, three mice received stereotactical injection of control vector (GFP) or Mt2Ddn lentivirus in SN. Two weeks later, mice were exposed to MPTP. After treatment for seven days, the survival of lentivirus-transduced TH+ neurons in SN was determined by immunohistochemistry (left panel). Quantitative analysis of nine mice from three independent experiments was shown at the bottom panel (scale bar, 30 μm; **P<0.01).

[3] = system: SN4741 cells; assay: WST-1 cell viability assay; type: cell-based, mouse
Protocol: (§3) (A) Reduced binding of MEF2D to ND6 after neurotoxin treatment. SN4741 cells were treated with MPP+ (25 μM) or rotenone (Rot, 100 nM) for 12 hours. […] Control indicates untreated. […] Control indicates untreated. (C) Immunocytochemical analysis of mitochondrial MEF2D after MPP+ and rotenone treatment. SN4741 cells treated as described in (A) were stained (scale bar, 10 μm). […] Experiments were repeated four times. Control indicates untreated. […] SN4741 cells were treated with MPP+ after infection with the control, Mt2Ddn or Mt2DVP16 or MtND6 lentiviruses for 24 hours (upper graph: different doses of MPP+ for 24 hours; lower graph: 5 μM of MPP+ for different times). Cell viability was measured by WST-1 assay (n=4; *p<0.05; **P<0.01). Control indicates the control vector group.
WST-1 assay was done using a kit (cat. no. 11644807001) from Roche and following procedures provided by the manufacturer. WST-1 (4-[3-(4-Iodophenyl)-2-(4-nitrophenyl)-2H-5-tetrazolio]-1,3-benzene disulfonate) is a water-soluble tetrazolium salt whose cleavage by cellular enzymes correlates with cell viability. Cells were seeded in 96-well plates and treated as indicated. Than 10 μl/well of premixed WST-1 Cell Proliferation Reagent was added, and the cells were incubated for an additional 4 hr under the same conditions. Absorbance at 450 nm was measured on a multi-well plate reader (Bio-Tek).

[4] = system: MEF2D and ND6 proteins; assay: Western blotting of MEF2D, ND6 and PGC1 protein levels in SN4741 cells; type: cell-based, mouse; conditions: construct over-expressed in SN4741 cells
Source text: (§4) (A) Mitochondria-targeting MEF2D (Mt2D) and mitochondria-targeting dominant-negative MEF2D (Mt2Ddn), which lacks the transactivation domain (TAD). […] Control indicates the control vector group. (C) Effects of Mt2D or Mt2Ddn on ND6 expression in SN4741 cells. Over-expression of Mt2Ddn in SN4741 cells reduced ND6 but not PPAR-γ coactivator 1 (PGC1) expression by western blotting (n=4, **p<0.01). Control indicates the control vector group. (D) Effects of over-expression of Mt2D or Mt2Ddn on mRNA levels of mitochondria encoded genes. […] Control indicates the control vector group. (E) Effects of Mt2D or Mt2Ddn on mtDNA L-strand transcription initiation in vitro (n=3; **P<0.01). A human mtDNA fragment containing mitochondrial L-strand promoter (LSP) and ND6 gene was used in the in vitro transcription assay. […] (F) Effects of Mt2D or Mt2Ddn on mtDNA de novo transcription in vivo (n=3; **P<0.01). Control (−) is without primers. Control (+) indicates the control vector group.
as §3
(A) Diagrams of Mt2DVP16 and MtND6. Mt2DVP16 was constructed by fusion of transactivation domain (TAD) of VP16 with DNA-binding domain of MEF2D and a mitochondria-targeting sequence (Mito). […] (C) Over-expression of Mt2DVP16 attenuated MEF2D siRNA-induced reduction of ND6 expression (n=3, **P<0.01).

[5] = system: MEF2D binding to ND6; assay: ChIP assay of MEF2D binding to the ND6 MEF2 site in purified mitochondria; type: cell-based, mouse; conditions: construct over-expressed in SN4741 cells
Source text: as §4, §3
Andres et al., J Biol Chem, 1995, 270:23246-23249. Moreover, this putative MEF2 binding site is conserved among several species. To test whether MEF2D binds to this putative MEF2 site, electronic mobility shift assay (EMSA) was performed. N-terminal MEF2D formed a complex with the labeled probe containing the ND6 MEF2 site. […] To corroborate this finding, a chromatin immunoprecipitation (ChIP) assay was carried out using highly purified mitochondria. […] ND6 but not ND2 based primers could amplify the bound sequence (FIG. 3C). Sequence analysis of the DNA bound by MEF2D after amplification confirmed the presence of the ND6 MEF2 site (FIG. 3D).

[6] = system: mitochondrial complex I; assay: Mitochondrial complex protein level and activity (BN-PAGE, in-gel staining, quantitative assays); type: cell-based, mouse; conditions: over-expression in SN4741 cells
Source text: as §1, §2

[7] = non-denature gel electrophoresis

binding of full length MEF2D to the ND6 MEF2 site [5]: modulated
B1: Mt2Ddn: Mitochondria-targeting dominant-negative MEF2D: mouse MEF2D 1-131aa with mitochondria-targeting signal, lacks the transactivation domain (protein, UniProt Q63943 1-131, looked up, fragment)
chain: MGRKKIQIQRITDERNRQVTFTKRKFGLMKKAYELSVLCDCEIALIIFNHSNKLFQYASTDMDKVLLKYTEYNEPHESRTNADIIETLRKKGFNGCDSPEPDGEDSLEQSPLLEDKYRRASEELDGLFRRY
modifications: mitochondria-targeting signal added
cellular ATP level [1]: clear reduction
hydrogen peroxide production by mitochondria [1]: significantly increased
mitochondrial membrane potential ([1]; JC-1): did not significantly alter
loss of TH signal in DA neurons in vivo [2]: significantly accelerates
sensitivity of cells to low dose MPP+ toxicity ([3]; SN4741 cells infected with lentivirus 24 hours, then different doses of MPP+ for 24 hours): clearly sensitized
cellular viability over time ([3]; SN4741 cells infected with lentivirus, 5 μM MPP+ for different times): impaired
ND6 protein level / expression [4]: marked reduction
level of PGC1 (nuclear target of MEF2) [4]: did not alter
mitochondrial complex I activity [6]: significantly reduced
protein level of complex II-V [6, 7]: no effect
protein level of mitochondrial complex I [6, 7]: markedly reduced
